# From PMC6589562
# Target: spoke HSP40 (His-tagged recombinant HSP40) (Chlamydomonas reinhardtii)
# Test: AUC
substance,measurement,value
spoke HSP40 (His-tagged recombinant HSP40) (natural protein),stoichiometry N,2
